Source: patent US20140235820A1, “METHODS AND COMPOSITIONS FOR MODULATING THE Wnt PATHWAY” (Genentech, Inc., priority 2010, published 2014)

Target: T1, LRP6 (Homo sapiens, UniProt O75581)
T1 construct: made in house; host or cells: Tni insect cells (baculovirus, secreted)
T1 sequence (O75581 20-1253): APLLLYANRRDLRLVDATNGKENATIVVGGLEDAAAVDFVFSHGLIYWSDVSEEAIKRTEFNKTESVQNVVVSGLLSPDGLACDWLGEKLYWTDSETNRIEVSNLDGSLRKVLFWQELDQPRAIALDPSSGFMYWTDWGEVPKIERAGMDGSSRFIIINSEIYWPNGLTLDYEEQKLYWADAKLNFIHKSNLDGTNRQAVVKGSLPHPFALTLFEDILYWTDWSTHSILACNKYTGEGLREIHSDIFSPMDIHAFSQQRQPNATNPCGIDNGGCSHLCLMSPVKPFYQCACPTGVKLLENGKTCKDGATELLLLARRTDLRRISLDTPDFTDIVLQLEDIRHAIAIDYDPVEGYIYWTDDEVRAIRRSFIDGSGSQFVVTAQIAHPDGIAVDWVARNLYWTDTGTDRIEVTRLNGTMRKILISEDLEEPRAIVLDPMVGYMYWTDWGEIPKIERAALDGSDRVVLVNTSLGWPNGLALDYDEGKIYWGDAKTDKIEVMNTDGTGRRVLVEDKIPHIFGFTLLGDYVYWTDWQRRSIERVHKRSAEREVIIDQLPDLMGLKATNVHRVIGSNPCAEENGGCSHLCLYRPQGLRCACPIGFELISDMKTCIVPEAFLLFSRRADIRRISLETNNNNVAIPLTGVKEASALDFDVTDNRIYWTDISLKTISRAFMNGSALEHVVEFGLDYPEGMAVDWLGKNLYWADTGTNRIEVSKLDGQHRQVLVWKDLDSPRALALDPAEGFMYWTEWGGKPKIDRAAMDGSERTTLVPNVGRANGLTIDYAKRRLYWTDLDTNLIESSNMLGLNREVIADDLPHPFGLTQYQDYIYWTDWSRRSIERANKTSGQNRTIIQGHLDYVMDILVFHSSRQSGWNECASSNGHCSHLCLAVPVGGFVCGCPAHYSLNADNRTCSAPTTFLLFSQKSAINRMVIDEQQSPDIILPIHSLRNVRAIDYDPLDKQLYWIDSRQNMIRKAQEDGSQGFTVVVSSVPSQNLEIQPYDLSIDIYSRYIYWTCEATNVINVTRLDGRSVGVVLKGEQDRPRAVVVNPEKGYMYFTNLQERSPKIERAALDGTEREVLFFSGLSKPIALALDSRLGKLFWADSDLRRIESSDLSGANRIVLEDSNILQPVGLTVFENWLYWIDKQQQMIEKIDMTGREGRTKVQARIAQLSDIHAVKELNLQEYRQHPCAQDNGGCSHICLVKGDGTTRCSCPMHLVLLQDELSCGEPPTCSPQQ
Test: Biolayer interferometry binding to any LRP6 construct tested
Description: Binding kinetics were measured by biolayer interferometry using an Octet Red instrument (ForteBio) as previously described (11). Streptavidin (SA) biosensors were loaded with biotinylated hLRP6 in 50 mMTris, pH 8, 300 mM NaCl, 5% (v/v) glycerol, and 0.05% (w/v) Triton X-100. The loaded biosensors were washed in the same buffer before carrying out association and dissociation measurements for the indicated times. The Kd of each interaction was determined using steady state-analysis through the Octet Red software v6.3. Each reported value represents an average of three or more experiments at different concentrations, with a fitted experimental curve for which the square of the correlation coefficient (R^2) is above 0.96.
The interaction of the different Dkks and sclerostin with various domains of LRP6 was measured using a biolayer interferometry assay (11). Purified receptors contained individual β-propeller-EGF-like units (E1, E2, or E4), two β-propellers (E1E2 or E3E4), or four β-propellers (E1E4))—as follows:
Human LRP6: construct E1E4-amino acids A20-Q1253 of LPR6; construct E1E2-amino acids A20-E631 of LPR6; construct E3E4 amino acids E631-Q1253 of LPR6; construct E1-amino acids A20-D325 of LPR6; construct E2-amino acids […]-E631 of LPR6; construct E4-T933-Q1253. The individual LRP6 β-propeller E3 could not be expressed.

binding to any LRP6 construct tested: failed to bind
Substance: Dkk3: Dickkopf 3, carrier-free protein from R&D Systems
